The text below walks through data of patent US20020019349A1.

The test has as its target relaxin binding sites on primary human fetal cardiac cells (receptor not named) (human). As to the kind of experiment: competitive binding on cultured cells: 100 µM 32P-relaxin, 2 hr at room temperature, with or without 1000-fold excess of unlabeled relaxin; (total - nonspecific)/total x 100.

In the case of “32P-labeled relaxin (from UniProt P04090 162-185; P04090 25-53) (ligand)”, the percent specific binding is 40 to 55%.
